In a protein production outcome set (Wang et al. 2014) one finds protein production data, which are given here for 17 sequences.

This data set can be described thus: label from the status in PepcDB records.
For the sequence “MDIGRKRDVFLIILPALCAFALALIPTFRYTVPLTWDVYYHIHNATLYMGRGIVFWDPLTSAPHGRPLYYPPLFHIMLLFLSKITGLGFFTVSRFMQPVFAFLILLSFSYVSGKLYGPLAGFLTGMFLFSSLFFMRMMFPIPESLAMISIPLFVYGYYRSMECCSRLYPVLTGLLLGLMLMTHILSASIILAVVTLSTIVLYIGKYDIRPWNLLIILGSGLLLASVWYAPLIVKYGFVFRSPATSSLPLEGYITHLGVLLTILSLAGIVHAAGRREKKDVIMAVWTVFVLALTAAYLLGLKVLSDRILYFALFPMATLSANLFNSIRINNGKWSFYAIILLISLYCIYDGYSLASSIKLEVSDSELDIAEWFRYNGDHATVVVSDYHIQPAIVAVSGQPVSAGGYAPGTIRSINVEKYISSFNYTKHDIMRDRVGYIILDNEERTPPYSRLVYRNRDFSVYRVNV”, the protein production result is “failed”.
Next, “MDIHQELKELSKFLSEYSTSLMAVGVQTSRIVRNTSRIAESFGFFCDMTIFQKTIIMTLRDADNSHSYSTVNKIKPMGLNFAINSALSTLSWEAYDEHLSLSELQRRYHEIVSKPRESKWLVLILVAFANASFCRLFQGDFISMGIVFVATLAGFFVRTELMGRHWNHLAIFIISSFIASMIGSTGYLMHWGDTPDMALGTSVLYLIPGVPLINAIMDIIDGHVLAGTSRFINACLLIICIAIGLSMTLLITGISTL”: “failed”.
To “MDIIPILLLAAGQSRRMGGADKLMQEIDGMPLLRRTALRAIPVAPVIAALPPAPHPRHGALVGLTLDIVEVPDAAEGMNASLRRAVAALPPEAPAAMILLADLPDLTESDLNTVRRAVDFSQKNLIWRGATEDGQPGHPVVFHRCLFPQLLALRGDQGAQPLVRDHADRVALVPLPGQHARTDLDTPEAWADWRARQQ” belongs “failed”; to “MDIITKMQVDVPRETVFEAFVDPEKIGGFWFSSSSERWEQGKTITLRYEEYDAELNINIERVEDNQLIAFTWGAHPITIQFEESEAGTVVTTTEKDFDTQDVKQLLGQKEGWVYMLSCLKVYLEHGVTIRAAILLEHHHHHH”, “failed”.
To “MDIKVSGRKTTVTDALRAHVDEKIGEALKVFDIEPMTVDVVLRYEKNPSNPNPAIVEVTARARGSVIRVAEHGADMYAAIDLSADKVTRQLRKFKTKVVDNRQGGASAADVAPVERVEDLADLLLPEEDDDLLVREKVIDVTPMTEEQALVQTDLLGHDFYVFENATTGLINVVYHRKNGGYGIIKPRIETLDE” belongs “failed”; to “MDINKLKLTPDSSIKEALKIVGQERVRLGIIVDKKDKFLGVISDSNIRKALISGKTLKDSIKDIYTKNPITIKENTSKEQLLKISAKTDIYDFPVLDEKGQILSIKSISSLLKANPNSIIIMAGGLGSRLKELTKDTPKPMLKVGKKPILESIIQRLKNQNFENFIFCVNYKKQIIEDYFQKGQKFGVKISYIKERKKLGTAGALSLIKQEFKESFIVMNADILTELDFNALLKAHKKSKALMSVCVREFEQQIPYGVITQKQGFIENIEEKPTQKFLVSAGIYVLENEILNLIAKNEYLDMPELIKLVLQKGKVNTYIINDYWIDIGRPDEFLKANEDFKLEHHHHHH”, “not failed”; to “MDINMKKHKTIQFIVAALFIASACTDDRDNLMVNDQIGLLHSTYTETEIFRGMDTPYQLFVIKSGKGKQETEVSISVDETVLQSYNTDNGTSIQLLPSDCYTILQPALRLNDSDYRKAFDIKWNADRLSDLLSTGKEYGLPIQMSVVQNFISADDERLKTIIVPTIKEPYLQMDVPGMSPVTDFMPTFGDLNERELFVKIRTNYSNDEDISFQIEVDPQLVIDYNTAHGTAYKMLPESSFTVDNKGVILTGMKETFIKIKYHKKGLIPEEGTYLFGDYVLPLRITSVSKYGISPDAASKLYTVKFQPDPIDKKGWSVIDFNNCCTQDGGWYLNMGWGVESLIDNNPGTQWLCRWDVKEPLPYYFVFDMGKEYTLFRFGFANPVAPAAHVWAGTSKAGYVEASIDNENWVKLKDWTSPKIGEPNVNMDVPATQARYIRFVITDTYPTYDGLRVSLGEVYAWGM”, “failed”.
On to “MDIQNMPREQLGVCAEGNLHSVYLMFNANDNVESQLRPCIANVAQYIYELTDQYSDSAFNGFVAIGANYWDSLYPESRPEMLKPFPAMQEGNREAPAIEYDLFVHLRCDRYDILHLVANEISQMFEDLVELVEEERGFRFMDSRDLTGFVDGTENPKGRHRQEVALVGSEDPEFKGGSYIHVQKYAHNLSKWHRLPLKKQEDIIGRTKQDNIEYESEDKPLTSHIKRVNLKDENGKSIEILRQSMPYGSLKEQGLMFISTCRTPDHFEKMLHSMVFGDGAGNHDHLMHFTSALTGSSFFAPSLDFLMQFDN”, for which the protein production entry was “not failed”.
To “MDIQRSILIVALAVVSYLLVLQWNKDYGQPELPAASASMNTTQGLPDTPSASGTSSDVPTAQSSAAGSEAADKPVAVSDKLIQVKTDVLDLAIDPRGGDIVQLGLLQYPRRLDRPDVPFPLFDNGRERTYLAQSGLTGADGPDASSAGRPLFRSAQSSYQLADGQNELVVDLSFSHDGVNYIKRFTFHRGLKADCSDKEKAQKKIECINENAYQVGVSYLIDNQSGKTWSGNLFAQLKRDGSADPSSTTATGVSTYLGAAVWTPDSPYKKISTKDMDKEQFKESVQGGWVAWLQHYFVTAWVPTKGEQHQVMTRKDGQGNYIVGFTGPTLSVPAGSKVETDLTLYAGPKLQKHLKELSPGLELTVDYGFLWFIAQPIFWLLQHIHSLIGNWGWSIIALTVLIKLAFFPLSAASYRSMARMRAVSPKMQAIKEQHGDDRQKMSQAMMELYKKEKINPLGGCLPILVQMPVFLSLYWVLLESVEMRQAPWLGWITDLSVKDPFFILPIVMGGTMLIQQMLNPTPPDPMQAKVMKLMPIIFTFFFLWFPAGLVLYWVVNNCLSIAQQWYITRKIEAAAKTA” belongs “failed”; to “MDIRQVTETIAMIEEQNFDIRTITMGISLLDCIDPDINRAAEKIYQKITTKAANLVAVGDEIAAELGIPIVNKRVSVTPISLIGAATDATDYVVLAKALDKAAKEIGVDFIGGFSALVQKGYQKGDEILINSIPRALAETDKVCSSVNIGSTKSGINMTAVADMGRIIKETANLSDMGVAKLVVFANAVEDNPFMAGAFHGVGEADVIINVGVSGPGVVKRALEKVRGQSFDVVAETVKKTAFKITRIGQLVGQMASERLGVEFGIVDLSLAPTPAVGDSVARVLEEMGLETVGTHGTTAALALLNDQVKKGGVMACNQVGGLSGAFIPVSEDEGMIAAVQNGSLNLEKLEAMTAICSVGLDMIAIPEDTPAETIAAMIADEAAIGVINMKTTAVRIIPKGKEGDMIEFGGLLGTAPVMKVNGASSVDFISRGGQIPAPIHSFKN”, “not failed”.
“MDITMKIAPLLLALGAAGLACCAHAADPKPFTVQQLVKLNKLHSAVVSHDGTKLVYGLKTVNDKGEASSDLYLLDLTQADAKPLQLTSAAGTEHDISFANDDKSIYFLASRSGSSQLFQLPLTGGEAQQVSDLPLDIDGYKLSNDGKQIVLSMRVFPECKDLACSKDKFKAEEERKSTGREYKQLMVRHWDTWEDHARNHLFVGTLNGEKLTKVVDITQGLDTETPPKPFSGMEEVTFTPDGQYVVYSAKAPSKDQAWTTNYDLWQVSVNGGKATNLTADNIAWDAQPTFSSDGRYMAYLAMTKPGFEADRYRIMLRDTSTGQSKEVAPLWDRSPSSLMFAPDNRTLYVTAQDIGQVSIFKVNTQFGDVQSVYSDGSNSLIAIADDQLIFDSKTLVEPGDLYRINTDGQGLKRLTEVNKDKLAEIKFGEFQQFSFKGWNNEDVYGYWIKPANYQEGKKYPIAYLVHGGPQGSFGNGFSGRWNAQLWAGAGYGVVMVDFHGSTGYGQAFTDSISQDWGGKPLEDLQKGLAAVSQQQKWLDPQNACALGGSYGGYMMNWIQGNWNDGFKCLVNHAGLFDMRSMYYVTEEVWFPEHEFGGTYQDNKALYEKFNPVNYVENWKTPMLVIHGEKDFRVPYGQGLAAFSFMQRKGIPSELLIYPDENHWILKPENLEQWYANVFRWMDSWTKK”: the protein production entry is recorded as “failed”.
Next, “MDIVTLKDFYASVLGKRVQETLCGQLNLCWPDLTGKRVMGFGYALPYLSALRMRAQQCLAFMPAGQGALPWPCADKVATALVFEEDLPLPDASIDCILLIHALEYTENSFETLNEIWRVLVPNGQLIVIVPNRSGLWARNACTPFGYGEPYSRQQIVRLFEKTHFVSGSIQEVVHYMPSSGSVSRFFSFFYEPVARHLLPYFGGLLICQAQKRVYQGLEHHHHHH”: “failed”; “MDIWNFFTSFIVQSIAFLTHEVGVGEAVAIILFTLIGRLVLMPINLLAMANMYRNKKAISALKPELDKIKVIHKDKPNEIAKSTMALYKKNNIKILDKKSVINIASQGVFGFGMFQALQQIVFNSKFAWIANIAKPDVALALLVGVITYFSMIMMPGSAEQTSTLLFIIPAIICIITLISFPSAIGLYWATSSVTSLLQSLVLNNYFQKQEINKAI”: “failed”; “MDKENEYNKMCEEHDKYFKNLFKNLNRKIEYTFACEKENTYDDSVSNSIYTNSNQNEDNISYNNNNINNDNISSSSISKNSNNTKNSSFNETKNINDDKIKYDDKNVYDDKNINDDKNIYDDKYLYDDKNINHDKYSYDDKNINDDKYLYDDKNLYDGNNIYEENNYNNNNTNGHQMKSPTYHMKNSVQNITIYTSINKNDISKDINKINEKNTANINTSHIYQIKNDENNNNIYNNVEHIKSLCESYKNYDNDHLLYYKKHSHSKEDIHNYPIFNNAKTSQLENSNNDFLNIMNNNIKNNISEMESSKKKKKSNLLITNEIEDKLSNIQINHTNKINENNTIQYGQKTKGNKIGNHKTNIKEKLNDLIENIHLKNNKIENMNNMDDMNDMDNMNNMDDMDNTDNMNNRGNMNNRDNINNRDNMNNSNNMDNKDNMNNKDNINNKDNMNNKDNINNKDNINNLNCIDNMKHDKLQKDHLETPPIHKSPITRKSKNNIMDILNNKMNITSLENVDTSTPKYVKYNTIHREIMNPRQHFFNQNKSSIDHIICL”: “failed”.
“MDKESVDTLFGMGLTAYQAKDYTKAIHALEHLREHDPSYTTLYSYLAKSYEENGEPEKAIAVLRDGLTQDEFNKEMFLEAGKLAVTLRLPEEAEEFYRQAIVLDEEFSEAIMQLNKLLLAKENYEGVIELVEGLGEEVISEPQIFWDVSVAYQETEQYNKAKANYELAYPHFTNNPTFLKEYGLFLREEGEHAKSQEVLRSYLELEPLEHHHHHH”: the protein production entry is on record as “not failed”.
For “MDKFYHFLTLTGIGLYWFLVAGVTLRVVLKRRAVSVSLAWLMIIYILPVLGVACYFLFGELNLGRKRAERAKEMFTPFAKWFSQLNDCHAHMPETMGRHIYRIDELCNNRLGLPALSGNTLSLQQSPDEILHSIIEDIENAKTSIRMVFYIWHPGGLADSVASALIQASKRGVDVKLLLDSAGSPRFFRSPWYKMMKDSGIEVIQALEVKMWRMFLRRLDLRQHRKIIVIDDEIAYTGSMNLVDPAYFKQSSGVGRWIDIMVRVTGPTVNVLSAIHCWDWEVETGERYLPKLPECKIDNSKYQHPIQVVPSGPGMPEYLIYQVLTLAINQANRSVRITTPYFVPNTDLLETLKMTAQRGIDVELIIPHKNDSLMVQWASRAFYSELLAAGVKIYEFYGGLLHTKSVVIDDQFCLVGTVNMDMRSLWLNFEVTLAVDDEEFTKQLSWLQDGYIKQSHPVVLDEWEKRSLYSRFLERVFYLFNPLL”, the protein production entry is on record as “failed”.
For “MDKHIIGENAGKLWRLLSTDVHRKWTLQEVKDATGFNDLEAASAIGWLAREDKIQFELEHHSTKDKNVFLYLMLNVYFLEHHHHHH”, the protein production result is reported as “not failed”.
